Results: publication PMC4108063
Read-outs that look alike come from different tables or passages of the source.

Assays:
hERG-D591A (human) = hERG-D591A (human) (UniProt Q12809)
[1] = target: human ether-a-go-go-related gene potassium channel (hERG), wild type (human) (UniProt Q12809)
hERG-Y597A (human) = hERG-Y597A (human) (UniProt Q12809)
hERG-K610A (human) = hERG-K610A (human) (UniProt Q12809)
hERG-I583A (human) [2] = target: hERG-I583A (human) (UniProt Q12809)
hERG-K595A (human) = hERG-K595A (human) (UniProt Q12809)
hERG-N598A (human) = hERG-N598A (human) (UniProt Q12809)
hERG-R582A (human) [3] = target: hERG-R582A (human) (UniProt Q12809)
hERG-T613A (human) = hERG-T613A (human) (UniProt Q12809)
hERG-P596A (human) = hERG-P596A (human) (UniProt Q12809)
hERG-S600A (human) = hERG-S600A (human) (UniProt Q12809)
hERG-K608A (human) = hERG-K608A (human) (UniProt Q12809)
hERG-L586A (human) = hERG-L586A (human) (UniProt Q12809)
hERG-Q592A (human) = hERG-Q592A (human) (UniProt Q12809)
hERG-S631A (human) = hERG-S631A (human) (UniProt Q12809)
hERG-H587A (human) = hERG-H587A (human) (UniProt Q12809)
hERG-N588A (human) = hERG-N588A (human) (UniProt Q12809)
hERG-I583A (human) [4] = target: hERG-I583A (human) (UniProt Q12809); remark: listed apart in the source
hERG-R582A (human) [5] = target: hERG-R582A (human) (UniProt Q12809); remark: listed apart in the source
[6] = target: human ether-a-go-go-related gene potassium channel (hERG), wild type (human) (UniProt Q12809); remark: listed apart in the source

**Q.** For scorpion toxin BmKKx2 (peptide), which IC50 (half-maximum inhibition concentration) of mutant hERG channel currents, whole-cell patch clamp on transfected HEK293 cells (hERG-D591A (human)) is on record?
**A.** 19.6 nM

**Q.** What about the IC50 (half-maximum inhibition concentration) of hERG channel currents, whole-cell patch clamp on transfected HEK293 cells [1] of the same substance?
**A.** 6.7 nM

**Q.** And the IC50 (half-maximum inhibition concentration) of mutant hERG channel currents, whole-cell patch clamp on transfected HEK293 cells (hERG-Y597A (human))?
**A.** 118 nM

**Q.** What about the IC50 (half-maximum inhibition concentration) of mutant hERG channel currents, whole-cell patch clamp on transfected HEK293 cells (hERG-K610A (human)) of the same substance?
**A.** 6.7 nM

**Q.** What about the IC50 (half-maximum inhibition concentration) of mutant hERG channel currents, whole-cell patch clamp on transfected HEK293 cells (hERG-I583A (human) [2]) of the same substance?
**A.** 87.5 nM

**Q.** And the IC50 (half-maximum inhibition concentration) of mutant hERG channel currents, whole-cell patch clamp on transfected HEK293 cells (hERG-K595A (human))?
**A.** 65.2 nM

**Q.** What about the IC50 (half-maximum inhibition concentration) of mutant hERG channel currents, whole-cell patch clamp on transfected HEK293 cells (hERG-N598A (human)) of the same substance?
**A.** 15.2 nM

**Q.** What about the IC50 (half-maximum inhibition concentration) of mutant hERG channel currents, whole-cell patch clamp on transfected HEK293 cells (hERG-R582A (human) [3]) of the same substance?
**A.** 76.5 nM

**Q.** What about the IC50 (half-maximum inhibition concentration) of mutant hERG channel currents, whole-cell patch clamp on transfected HEK293 cells (hERG-T613A (human)) of the same substance?
**A.** 42.6 nM

**Q.** What about the IC50 (half-maximum inhibition concentration) of mutant hERG channel currents, whole-cell patch clamp on transfected HEK293 cells (hERG-P596A (human)) of the same substance?
**A.** 60.8 nM

**Q.** And the IC50 (half-maximum inhibition concentration) of mutant hERG channel currents, whole-cell patch clamp on transfected HEK293 cells (hERG-S600A (human))?
**A.** 12.1 nM

**Q.** What about the IC50 (half-maximum inhibition concentration) of mutant hERG channel currents, whole-cell patch clamp on transfected HEK293 cells (hERG-K608A (human)) of the same substance?
**A.** 116 nM

**Q.** What about the IC50 (half-maximum inhibition concentration) of mutant hERG channel currents, whole-cell patch clamp on transfected HEK293 cells (hERG-L586A (human)) of the same substance?
**A.** 24.3 nM

**Q.** What about the IC50 (half-maximum inhibition concentration) of mutant hERG channel currents, whole-cell patch clamp on transfected HEK293 cells (hERG-Q592A (human)) of the same substance?
**A.** 89.5 nM

**Q.** And the IC50 (half-maximum inhibition concentration) of mutant hERG channel currents, whole-cell patch clamp on transfected HEK293 cells (hERG-S631A (human))?
**A.** 698 nM

**Q.** What about the IC50 (half-maximum inhibition concentration) of mutant hERG channel currents, whole-cell patch clamp on transfected HEK293 cells (hERG-H587A (human)) of the same substance?
**A.** 59.7 nM

**Q.** And the IC50 (half-maximum inhibition concentration) of mutant hERG channel currents, whole-cell patch clamp on transfected HEK293 cells (hERG-N588A (human))?
**A.** 14.5 nM

**Q.** What about the percent of mutant hERG channel currents inhibited by 100 nM BmKKx2, whole-cell patch clamp (hERG-I583A (human) [4]) of the same substance?
**A.** 70%

**Q.** What about the percent of mutant hERG channel currents inhibited by 100 nM BmKKx2, whole-cell patch clamp (hERG-R582A (human) [5]) of the same substance?
**A.** 70%

**Q.** And the IC50 (half-maximum inhibition concentration) of hERG channel currents, whole-cell patch clamp on transfected HEK293 cells [6]?
**A.** 26.7 nM
